Laboratory results: the DeepSol protein solubility set

Assay: soluble on expression in E. coli; label from the status in PepcDB or PDB records

Soluble on expression in E. coli, not soluble:
FASNWVSHTHEVIQTIDTCLYDIVEIESRQRFYLIRGSSSQLMADIDDMKSTLQLNLDKLEQLTRDNPEQNKRIHRFIDLVKQRLNLLNQLVQLKGSGKLDTQEGYDLLNQSQDMSHQVKSLGQEIKSVELVLLSERNTG
MSLNPVDRPLLDIGLTRLEFLRISGKGLAGLTIAPALLSLLGCKQEDIDSGTVGLINTPKGVLVTQRARCTGCHRCEISCTNFNDGSVGTFFSRIKIHRNYFFGDNGVGSGGGLYGDLNYTADTCRQCKEPQCMNVCPIGAITWQQKEGCITVDHKRCIGCSACTTACPWMMATVNTESKKSSKCVLCGECANACPTGALKIIEWKDITEGHHHHHH
MSLKTPLKDEVFSFIDLETTGSCPIKHEILEIGAVQVKGGEIINRFETLVKVKSVPDYIAELTGITYEDTLNAPSAHEALQELRLFLGNSVFVAHNANFDYNFLGRYFVEKLHCPLLNLKLCTLDLSKRAILSMRYSLSFLKELLGFGIEVSHRAYADALASYKLFEICLLNLPSYIKTTMDLIDEGHHHHHH
KMPISAGVTVERKLNDYLGIETGLLYSNLRSEGQHLHYLGIPLKANITLMDTKKIDLYATVGGVADKCIAGAPDNSFKEEPIQLAVTAGIGITYKINDRLAVFAEPG
MATKEKHVRKPDWVKIKLNTNENYIGLKKLMRENRLHTVCEEAKCPNIHECWAVRRTATFMILGSVCTRACRFCAVKTGLPTELDWQEPERVAESVRIMNLKHVVVTAVARDDLKDGGAAVFAETVRAIRRKNPFTTIEVLPSDMGGVYENLKILMDARPDILNHNIETVRRLTPRVRARATYERSLEFLRRAKELQPDIPTKSSIMVGLGETKEEIIEAMDDLRANHVDILTIGQYLQPTKKHLKVVKYYHPDEFQELKEIALSKGFSHCEAGPLVRSSYHADEQVSEAAKARQLKA
MGSDKIHHHHHHMIEQQMPFRRILLTSDTFQILKEGQIISTFNKCGIFYCQRGSVEVSLEGCHYHIKPGDVYIYMASTLVHLLHKSEDAEGIMVEVDFYYILPIVNKVINVESQLFMRKNPCVSLSGEQCAHFEYLLNNLWDRINAEDCQKENVQYQHLKLELIKSMGQTICYEILNMYFTNQPLQPLQQGKKDVVFQNFMLSLFRFYRKERDVSFYARMQHITPRYFSAIIKEKTGDSALQWIVRMVITEAKQLLEESDLSIKEIADQLNFPTQSFFGKYFKQYVGVSPKEYRNNAATTRIKR
MKRLLLLGGIGEALALARRLGPAHLYSLAGLGKVPGDLACRVRVGGYGGAEGLAAFIDEQGFDLLVDATHPYAARISQNAVRAARLAGVPCWALRRPGWQAGPGDDWREVADWRELIAALTPFRRPLFTLGREPLEHLGQVPPHQHWTVRCLQGQPAAPRAEVIGARGPFSLDGERALFERLACDVLVSKNSGSQATEPKLQVAREMGLPVLVLARPALPPADREFADGEALLTAIRDWESA
MGSDKIHHHHHHMTKRAVVAGINDYRNWNSVGFGNLSWCLTDAQSFAEDVLVHGRGFRPDDITVLLDRDATRTNILEHLRRLLARADLGDVICLYFSGHGDRAQVPGTPSEWHETIVPYDGAAMISDHEINALIAGLEFNRLNLTLVLDSCHSGGVYDPAPPQGSKVAQWGEDKLGALVSTCKTILPTICAQTVDPFVNNIQAILRAVDSATMTVDGAKDTAETAKATLFSACDFDETAKENPTLRHGFMTKALLDTVTQSAFKMPNRLLASDLRGKVAAFVSQFGTSQQTPCLRGRPVRQDEDFLTEWTFSI
MGSDKIHHHHHHMEKAERLTGTPDYAVLPGRILDKTLAGRGLQKAEFAERCGHSAKMISEIIAGKAPIMPETALEFERVLGMPASYWLTLESLYRLRLAEQRDRQRLSDQRDWAKRFPIAAMVRLGWIDKPSDRVDEVAKLLAFFGVASVEAWQAMTASAAEQIAYRRSPSFQSAPESVSAWLRRGEMVAGARPCGPFDEAGFRRVLKSVRELTREAPEVFQPSLIERCACVGVAVVFTPELPKTCLSGATRWLSKDKALIQLSLRHKTDDHLWFTFFHEAGHVLLHPKKLILEEKLKKGEAPTPESAQREREANVFAATTLIPRSAWMAFTAAGDFSAPRIRAFAKEHSLSPGIIVGQLQHDSHLSYATTLNSLKTTFRWPAESAVSHPSV

Soluble on expression in E. coli, soluble:
MVNPEEQPISILFLGIDDNDGRRKKGQDAEHSRSDAMILTTFNQSKHQIRMLSIPRDTISYIPKVGYYDKITHAHAYGGPIAAMDSVEATMNVPVDYYVRVNMKAFVEAVNELGGIYYDVPYDLNEPNTDDTGKIKIKKGYQKLNGDEALAVARTRHHDSDLKRGQRQMELIKILFQKAQEVDSIDKLDNVIQIVGKNAKHNLTNSEIKALAKMYLTNDVEIKTAQLKGKDDMLNGIYYYHPSVESIQKYANLLRKDLELSPINDKNDFLDQRVINHYGSLIPLTPLDSSLLRKEQNDTTDKDKTSNENNDSTNNSDSSNQQQPATDQNLNQNQGGTQQAPQASNNQNGVVNLEHHHHHH
MSKAKAPINTDELKQKYGRVYEIRIEGLEYENGEEAEFVFYFTRPKVSDISRFTKELNSKPDMAMKNLTFSCIVPEQEEELRQAAEEFPGLTFNTASRLMEIVGASAATSLKKL
MGEETINSTQNKTRTKTTRPKAVYLWTVSDVLKWYRRHCGEYTQYEQLFAQHDITGRALLRITDSSLQRMGVTDNRDREAIWREIVKQRLKTDIMEIRDMERLNIY
MSLYLEKYYYEKNIQEEFFKFLYSMTGKKEEIVVICIGDPVFEGNILAPLVGTLLHERNIPNVYGTLKEPVYEINIKEIYNKILKKYDNPYIILVASSFPVDFHDEREVIVLKNDPYEIQTASGSLKLGNASFIVVFDLEDSYCKVNFIEKLGIRKIYKYSEAIFKTLYYILHNKNYVKEGHHHHHH
MSLQICQGNGEFVHLLENSKGSPESFASAYSQSMRLTNGEFLCYHISTDYKSISFYNFKNASDGRTIIIHLPAKLMHEHHTLVVEEQEGVIVVDVILESSAFLTMRLPLEYIFGIENVLDDNWLSMQSPYDFTVRRPHLLHKVSQDFFVVFLEDGGLLGLRQHNENYLEPLLFNDYSYIQTLTSMFSRKKKQPADRAVACLVIHDKYLVVLTRLCHLKIWDLGSFHLVQEYNLTENFNGTLETIEYESNGNYISTLNDVIVIYLPIGNGVFKFGRLSFTNDGERKPTFNMFSSIDANMKKSTIWSFVDMKLTDPLELNFTSTTFNLIILWKSGSNSKLQILNIKDSSFSDFEWIEASNKSLQNFQTEEISALIQNYDFDKALYKLKSHYSDMTFKEADSLLLANNIVYSENNETQQQQYLANLDTLLRDINNNHSEIASFTIYKNDMILVNTHNLYNHGFYKINSSLENIYFNLSEITEGHHHHHH
MEDDHSKEMDRLRSQAAKVQSEKETFDRKRRETLEKHKKELDELEKKNKKEEDDLREQNMNLWNKNLDQQIALGNELNNKYTEISNQNSRLQIKIGQEEDIRVFKIKLLDVSKVWTDVKVNYQDYLRNTLDEHSNSNKSDVLKEIDTLIYNKEKLNEVLITAKKLLGKCQKFTTSDSFKVINDSLTELMRFKFEDDILIELKTIIKKNGSAEQSFLTKMDETIDKYNEMVNELPGLQLKSVEPIHQAAIQ
MERLFKHICLVARHSKPGITPALMQLANHLAAGGATVLIDKESVTPDEANGYPLIDRTDMGKLADLCIVLGGDGTMLSIARLLAPYRVPLVGINQGRLGFMTDIPLHEMLDSVDAILHGKFVPEDRILLQAAVVREDAEVASALAFNDVVFSRGAVGSMIEFEVFIDNQFVYSQRSDGLIVSTPTGSTAYSLASGGPILHPTLQAIALVPICPQSLSNRPIAVNDSCEVEFMLTRGLDARVHFDGQLHCDLMEMDRVLIRRYRNPLRILHPEGYNYYDMLRHKLHWGERLILEHHHHHH
MEIKLEEILKKQPLYSGKAKSIYEIDDDKVLIEFRDDITAGNGAKHDVKQGKGYLNALISSKLFEALEENGVKTHYIKYIEPRYMIAKKVEIIPIEVIVRNIAAGSLCRRYPFEEGKELPFPIVQFDYKNDEYGDPMLNEDIAVALGLATREELNKIKEIALKVNEVLKKLFDEKGIILVDFKIEIGKDREGNLLVADEISPDTMRLWDKETRDVLDKDVFRKDLGDVIAKYRIVAERLGLL
SHSSSRASFTTRGDIRRQVEGFSASGERNKDTVVDLSTFFAERGYSNNQAPTKYWEEKLVTIGNVVVPKWVPVKERNSSNKQKEGEDEVFIGFEAIYYPEQPPERQPITLYQEENKVEEEEQSRE
MAQLYFYYSAMNAGKSTALLQSSYNYQERGMRTVVYTAEIDDRFGAGKVSSRIGLSSPAKLFNQNTSLFEEIRAESARQTIHCVLVDESQFLTRQQVYQLSEVVDKLDIPVLCYGLRTDFRGELFVGSQYLLAWSDKLVELKTICFCGRKASMVLRLDQDGRPYNEGEQVVIGGNERYVSVCRKHYKDALEEGSLTAIQERHRHILEHHHHHH
MSLSDAAISCSWKPFFRELATRLLDYEDRQPELLAALRDASISINHDEGEPLREVDPFTFFSLVLKHTSDATALPLFARVGAALGVQAPSPTDLIGVPWSNPMNAWFFAYRSQRQPGDVPLLWRLARQAVAGILDAQTFEDALKIRKVALPKLTQGLFWLNPERFLALNAVNVPYLQARGLQAAGQVQTLAEYETVLEAAHKLNPDFAALSHRAWLNSQTAALEGNHFPFARYQADAQEFAGDKVKGNLVLDRRYAPLLLDLMAGEWETLKPSRSPYSGREQLAVKVALGGGVKTDGGAFARALLFADDSGFEYVPFSAGLTLEAGLPDGRGDGPRQALQEPARQHTLLTALNAPLPAGLEATLTLNTDFGALFLLPLGPGREAEAAQQLQQYMSGVGRSRRLRVGLSLLPEHLESDKFPELLDAALTYLDALVDLLDGLMRPSEETSTEEIGVPGTRPVAPTPAAFVPVPGVPLNQILYGPPGTGKTYRVVDEALSVLDPAFLSAHPGSEGRAARKARYDELAAQGQISFVTFHQSFGYEDFIEGIKPVMSGGALSYVLQDGVFLEAVRSAGGALAPAAPEAGPSTETQPLVRPDAQVWRMYIDGTAPVSRIRDLSLGRGELRMGSYGKPPRDLTQAGVEDLSGRQLLFKESVRVGDLMLLATAADRIGAVGVVTGDYRFDPHSDPTFATDYAHTRSVKWLAQDLNVGATETLGKSFAPPTLQRVADVTPAQVLQALGVSTAGGETAHAPTPRPHVLIIDEINRGNISKIFGELITLLESGKRTGAPEALTVTLPLSRRPLSVPQSLYVIGTMNTADRSLTLLDAALRRRFVFRPVWPQPEVLPVLDLGGTALDLRKFLHVINDRIERLLSREQVIGHAYLLGLPATLGGVSSALRERILPLLEEYFFEDWSKIREVLGDESKAEALQFIHRSGSGPELRYRLNPEAFENIEAFTGVYAGVSDQDFPFDEGHHHHHH
